In doi:10.1101/2022.03.13.484121, “Helical ultrastructure of the oncogenic metalloprotease meprin α in complex with a small molecule hydroxamate inhibitor” (bioRxiv, 2022):
Changes are numbered by the printed parent chain. Numbers in names are those of the source.

B1: pro-meprin α R372T (enzyme, human (from the printed accession), UniProt Q16819 22-600, looked up)
chain: VPIKYLPEENVHDADFGEQKDISEINLAAGLDLFQGDILLQKSRNGLRDPNTRWTFPIPYILADNLGLNAKGAILYAFEMFRLKSCVDFKPYEGESSYIIFQQFDGCWSEVGDQHVGQNISIGQGCAYKAIIEHEILHALGFYHEQSRTDRDDYVNIWWDQILSGYQHNFDTYDDSLITDLNTPYDYESLMHYQPFSFNKNASVPTITAKIPEFNSIIGQRLDFSAIDLERLNRMYNCTTTHTLLDHCTFEKANICGMIQGTRDDTDWAHQDSAQAGEVDHTLLGQCTGAGYFMQFSTSSGSAEEAALLESRILYPKRKQQCLQFFYKMTGSPSDRLVVWVRRDDSTGNVTKLVKVQTFQGDDDHNWKIAHVVLKEEQKFRYLFQGTKGDPQNSTGGIYLDDITLTETPCPTGVWTVRNFSQVLENTSKGDKLQSPRFYNSEGYGFGVTLYPNSRESSGYLRLAFHVCSGENDAILEWPVENRQVIITILDQEPDVRNRMSSSMVFTTSKSHTSPAINDTVIWDRPSRVGTYHTDCNCFRSIDLGWSGFISHQMLKRRSFLKNDDLIIFVDFEDITHLS
notes: meprin α pro-form V22-S600 of uniprot Q16819 with R372T (removes a salt bridge of the helix interface); SEC-MALS was done on the zymogen (legend S6c); also called Pro-Meprin α variant R372T; source: S2 cells, secreted, purified (HIC-EBA, Strep-Tactin)
B2: pro-meprin α R372A (enzyme, human (from the printed accession), UniProt Q16819 22-600, looked up)
chain: B1 chain with T351A
notes: meprin α pro-form V22-S600 of uniprot Q16819 with R372A (removes a salt bridge of the helix interface); source: S2 cells, secreted, purified (HIC-EBA, Strep-Tactin)
B3: pro-meprin α (V22-S600), wild type (enzyme, human (from the printed accession), UniProt Q16819 22-600, looked up)
chain: B1 chain with T351R
modifications: N-linked glycosylations (sites not given in the text)
notes: meprin α, pro-form without signal peptide, EGF-like domain and transmembrane region; V22-S600 of uniprot Q16819; Cloned into pMT/BiP/V5; Subunits form a disulphide-linked (C308) homodimer; the dimers form helical filaments; also called zymogen; wild type meprin α; source: Schneider-2 Drosophila cells (S2), secreted, purified (HIC-EBA, Strep-Tactin)
B4: meprin α, active (mature) form, wild type (enzyme, human (from the printed accession), UniProt Q16819 22-600, looked up)
chain: NGLRDPNTRWTFPIPYILADNLGLNAKGAILYAFEMFRLKSCVDFKPYEGESSYIIFQQFDGCWSEVGDQHVGQNISIGQGCAYKAIIEHEILHALGFYHEQSRTDRDDYVNIWWDQILSGYQHNFDTYDDSLITDLNTPYDYESLMHYQPFSFNKNASVPTITAKIPEFNSIIGQRLDFSAIDLERLNRMYNCTTTHTLLDHCTFEKANICGMIQGTRDDTDWAHQDSAQAGEVDHTLLGQCTGAGYFMQFSTSSGSAEEAALLESRILYPKRKQQCLQFFYKMTGSPSDRLVVWVRRDDSTGNVRKLVKVQTFQGDDDHNWKIAHVVLKEEQKFRYLFQGTKGDPQNSTGGIYLDDITLTETPCPTGVWTVRNFSQVLENTSKGDKLQSPRFYNSEGYGFGVTLYPNSRESSGYLRLAFHVCSGENDAILEWPVENRQVIITILDQEPDVRNRMSSSMVFTTSKSHTSPAINDTVIWDRPSRVGTYHTDCNCFRSIDLGWSGFISHQMLKRRSFLKNDDLIIFVDFEDITHLS
modifications: N-linked glycosylations (sites not given in the text)
notes: meprin α construct V22-S600 of uniprot Q16819 after removal of the pro-peptide by trypsin; also called active state

Experiments:
[1] = target: the molecule itself; assay: MALDI-TOF mass spectrometry; C4 ZipTip purified samples, DHAP matrix, linear positive mode; zymogen and mature forms; shows only the covalent (disulphide) dimer
[2] = target: the molecule itself; assay: electron microscopy (cryo-TEM, 120 kV); inspection of particles of the purified variants

Row | Protein | stoichiometry N [1] | stoichiometry N [2]
1 | B1 | 2 | –
2 | B2 | – | 2
3 | B3 | 2 | –
4 | B4 | 2 | –
